Results taken from publication PMC5037814.

What was measured:
[1] = target: native bovine Casq1 (skeletal muscle calsequestrin, glycosylated) (bovine (B. taurus)); experiment: SEC-MALS; 50 µM Casq1 on Yarra 3u SEC-2000, 20 mM MOPS, 300 mM KCl, 0.05 g/dL NaN3, pH 7.2, 2 mM CaCl2
[2] = target: native bovine Casq1 (skeletal muscle calsequestrin, glycosylated) (bovine (B. taurus)); experiment: crystal structure; high-Ca2+ form: protein incubated with 5 mM Ca2+ before mixing (2.5 mM in the drop); hanging drop, 4 °C, 0.1 M HEPES, 0.2 M NaCl, 27.5% MPD, pH 7.0
[3] = target: native bovine Casq1 (skeletal muscle calsequestrin, glycosylated) (bovine (B. taurus)); experiment: SEC-MALS; 50 µM Casq1 on Yarra 3u SEC-2000, 20 mM MOPS, 300 mM KCl, 0.05 g/dL NaN3, pH 7.2, 1 mM CaCl2
[4] = target: recombinant bovine Casq1 (non-glycosylated) (bovine (B. taurus)); experiment: SEC-MALS; 50 µM Casq1 on Yarra 3u SEC-2000, 20 mM MOPS, 300 mM KCl, 0.05 g/dL NaN3, pH 7.2, 2 mM CaCl2
[5] = target: recombinant bovine Casq1 (non-glycosylated) (bovine (B. taurus)); experiment: crystal structure; high-Ca2+ form: protein incubated with 5 mM Ca2+ before mixing (2.5 mM in the drop); hanging drop, 4 °C, 0.1 M HEPES, 0.2 M NaCl, 27.5% MPD, pH 7.0

Substance	stoichiometry N [1]	stoichiometry N [2]	stoichiometry N [3]	stoichiometry N [4]	stoichiometry N [5]
native bovine Casq1 (skeletal muscle calsequestrin, glycosylated) (natural protein)	4	6	2		
recombinant bovine Casq1 (non-glycosylated) (natural protein)				2	6
